Measurements reported in article PMC4211926 (Journal of molecular biology, 2013).
Read-outs that look alike come from different tables or passages of the source. Values belong to the binder of their own block, whether it stands above or below them.

Columns and labels:
[1] = molecular target: T1, His-tagged SIRT1 catalytic domain (His-tagged SIRT1^CAT) (human, UniProt Q96EB6 234-510); assay: pull-down
T1 sequence (looked up): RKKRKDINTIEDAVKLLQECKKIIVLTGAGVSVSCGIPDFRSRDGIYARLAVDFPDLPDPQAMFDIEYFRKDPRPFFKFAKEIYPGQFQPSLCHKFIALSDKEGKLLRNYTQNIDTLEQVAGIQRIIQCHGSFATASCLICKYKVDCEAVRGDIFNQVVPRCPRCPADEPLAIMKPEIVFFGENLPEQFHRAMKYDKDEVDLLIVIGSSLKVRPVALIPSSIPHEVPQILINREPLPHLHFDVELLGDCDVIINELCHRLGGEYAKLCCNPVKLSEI

SIRT1^CAT S265A = molecular target: T2, SIRT1^CAT S265A (human, UniProt Q96EB6 234-510, S265A); assay: SEC
T2 sequence (looked up): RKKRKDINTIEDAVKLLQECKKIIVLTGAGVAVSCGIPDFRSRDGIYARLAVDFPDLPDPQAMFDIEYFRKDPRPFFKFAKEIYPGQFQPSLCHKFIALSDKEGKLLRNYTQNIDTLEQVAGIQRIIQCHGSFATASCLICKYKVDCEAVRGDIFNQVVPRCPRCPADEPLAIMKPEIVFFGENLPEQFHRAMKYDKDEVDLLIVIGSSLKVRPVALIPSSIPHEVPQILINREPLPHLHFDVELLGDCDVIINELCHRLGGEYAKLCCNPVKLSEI

SIRT1^CAT R276A = molecular target: T3, SIRT1^CAT R276A (human, UniProt Q96EB6 234-510, R276A); assay: SEC
T3 sequence (looked up): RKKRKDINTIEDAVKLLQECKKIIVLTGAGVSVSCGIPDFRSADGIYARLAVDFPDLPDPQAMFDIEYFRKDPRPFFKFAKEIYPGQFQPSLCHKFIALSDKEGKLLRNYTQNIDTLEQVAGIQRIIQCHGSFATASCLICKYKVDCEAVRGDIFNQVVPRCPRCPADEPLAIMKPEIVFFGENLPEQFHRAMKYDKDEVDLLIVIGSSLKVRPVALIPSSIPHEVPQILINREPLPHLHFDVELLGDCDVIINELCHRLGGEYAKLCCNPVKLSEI

SIRT1^CAT Q345A = molecular target: T4, SIRT1^CAT Q345A (human, UniProt Q96EB6 234-510, Q345A); assay: SEC
T4 sequence (looked up): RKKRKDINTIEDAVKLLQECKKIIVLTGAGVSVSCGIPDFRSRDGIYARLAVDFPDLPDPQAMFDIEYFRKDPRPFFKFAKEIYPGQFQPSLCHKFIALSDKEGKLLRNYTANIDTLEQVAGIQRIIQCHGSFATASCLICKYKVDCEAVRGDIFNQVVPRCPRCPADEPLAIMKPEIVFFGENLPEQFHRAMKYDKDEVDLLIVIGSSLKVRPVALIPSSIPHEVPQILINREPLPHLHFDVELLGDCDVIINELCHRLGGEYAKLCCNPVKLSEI

SIRT1^CAT I347A = molecular target: T5, SIRT1^CAT I347A (human, UniProt Q96EB6 234-510, I347A); assay: SEC
T5 sequence (looked up): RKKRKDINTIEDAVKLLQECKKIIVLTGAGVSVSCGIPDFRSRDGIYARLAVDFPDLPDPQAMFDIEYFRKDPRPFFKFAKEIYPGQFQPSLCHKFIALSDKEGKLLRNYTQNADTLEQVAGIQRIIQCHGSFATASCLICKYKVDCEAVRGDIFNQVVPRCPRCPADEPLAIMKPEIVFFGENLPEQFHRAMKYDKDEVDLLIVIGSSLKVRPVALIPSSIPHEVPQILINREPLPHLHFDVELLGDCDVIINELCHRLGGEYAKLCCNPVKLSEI

SIRT1^CAT H363A = molecular target: T6, SIRT1^CAT H363A (human, UniProt Q96EB6 234-510, H363A); assay: SEC
T6 sequence (looked up): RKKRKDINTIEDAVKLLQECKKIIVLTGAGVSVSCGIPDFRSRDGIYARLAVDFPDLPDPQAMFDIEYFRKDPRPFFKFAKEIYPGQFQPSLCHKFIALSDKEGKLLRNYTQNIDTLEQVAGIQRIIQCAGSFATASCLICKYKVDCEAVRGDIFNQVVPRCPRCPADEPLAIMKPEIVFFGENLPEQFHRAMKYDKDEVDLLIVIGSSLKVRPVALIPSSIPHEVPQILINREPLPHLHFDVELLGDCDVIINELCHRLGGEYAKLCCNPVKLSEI

SIRT1^CAT F414A = molecular target: T7, SIRT1^CAT F414A (human, UniProt Q96EB6 234-510, F414A); assay: SEC
T7 sequence (looked up): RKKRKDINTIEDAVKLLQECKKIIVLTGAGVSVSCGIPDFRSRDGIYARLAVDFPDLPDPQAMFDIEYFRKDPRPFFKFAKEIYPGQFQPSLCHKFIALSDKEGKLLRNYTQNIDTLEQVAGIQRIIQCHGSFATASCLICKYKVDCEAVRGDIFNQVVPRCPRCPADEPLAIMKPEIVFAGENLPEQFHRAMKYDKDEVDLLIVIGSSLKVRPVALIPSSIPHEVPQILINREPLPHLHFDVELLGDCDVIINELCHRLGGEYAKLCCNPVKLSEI

SIRT1^CAT R466A = molecular target: T8, SIRT1^CAT R466A (human, UniProt Q96EB6 234-510, R466A); assay: SEC
T8 sequence (looked up): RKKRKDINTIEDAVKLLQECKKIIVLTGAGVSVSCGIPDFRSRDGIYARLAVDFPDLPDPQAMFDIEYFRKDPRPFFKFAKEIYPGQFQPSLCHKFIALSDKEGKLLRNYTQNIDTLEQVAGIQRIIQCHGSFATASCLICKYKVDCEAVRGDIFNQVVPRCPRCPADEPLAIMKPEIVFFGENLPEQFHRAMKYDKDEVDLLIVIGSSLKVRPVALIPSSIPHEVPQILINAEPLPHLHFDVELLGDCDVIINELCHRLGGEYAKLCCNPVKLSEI

SIRT1^CAT D481A = molecular target: T9, SIRT1^CAT D481A (human, UniProt Q96EB6 234-510, D481A); assay: SEC
T9 sequence (looked up): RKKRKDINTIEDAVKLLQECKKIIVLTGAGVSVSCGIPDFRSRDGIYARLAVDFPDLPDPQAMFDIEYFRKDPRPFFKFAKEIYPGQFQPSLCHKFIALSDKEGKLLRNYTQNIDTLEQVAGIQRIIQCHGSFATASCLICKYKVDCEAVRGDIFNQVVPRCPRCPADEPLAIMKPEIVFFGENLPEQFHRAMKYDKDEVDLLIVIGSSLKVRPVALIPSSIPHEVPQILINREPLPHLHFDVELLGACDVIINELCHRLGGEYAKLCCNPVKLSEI

[2] = molecular target: T10, SIRT1 catalytic domain (SIRT1^CAT), residues 234-510 (human, UniProt Q96EB6 234-510); assay: SEC
T10 sequence (looked up): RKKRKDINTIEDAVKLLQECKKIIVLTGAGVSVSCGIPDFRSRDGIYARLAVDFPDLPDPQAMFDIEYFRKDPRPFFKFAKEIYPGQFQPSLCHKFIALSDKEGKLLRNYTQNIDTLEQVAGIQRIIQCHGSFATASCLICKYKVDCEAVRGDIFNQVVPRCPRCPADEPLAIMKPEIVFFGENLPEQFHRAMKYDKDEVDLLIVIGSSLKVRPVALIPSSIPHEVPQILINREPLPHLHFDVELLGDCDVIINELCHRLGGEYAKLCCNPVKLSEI

[3] = molecular target: T10, SIRT1 catalytic domain (SIRT1^CAT), …; assay: SEC; remark: listed apart in the source
[4] = molecular target: T10, SIRT1 catalytic domain (SIRT1^CAT), …; assay: SEC; remark: listed apart in the source

- binding result [1]: binds
Binder: QYLFLPPNRYIFHGAEVYSDSEDDV (domain or fragment, human, UniProt Q96EB6 641-665, looked up) [GST-tagged C-terminal regulatory segment of SIRT1 (GST-CTR)]

- binding result (SIRT1^CAT S265A): binds
- binding result (SIRT1^CAT R276A): binds
- binding result (SIRT1^CAT Q345A): binds
- binding result (SIRT1^CAT I347A): binds
- binding result (SIRT1^CAT H363A): binds
- binding result (SIRT1^CAT F414A): binds
- binding result (SIRT1^CAT R466A): binds
- binding result (SIRT1^CAT D481A): binds
- binding result [2]: binds
Binder: QYLFLPPNRYIFHGAEVYSDSEDDV (domain or fragment, human, UniProt Q96EB6 641-665, looked up) [C-terminal regulatory segment of SIRT1 (CTR), residues 641-665]

- binding result [3]: binds
- binding result [1]: binds
Binder: QYLFLPPNRYIFHGAEVYSDSEDDV (domain or fragment, human, UniProt Q96EB6 641-665, looked up) [SUMO-tagged C-terminal regulatory segment of SIRT1 (SUMO-CTR), residues 641-665]

- binding result [4]: binds
Binder: QYLFLPPNRYIFHGAAVYSDSEDDV (domain or fragment, human, UniProt Q96EB6 641-665, looked up) [CTR E656A]
